# Measurements from PMC9312987, “NMR Reveals Specific Tracts within the Intrinsically Disordered Regions of the SARS-CoV-2 Nucleocapsid Protein Involved in RNA Encountering”.
# B1: 5_SL4 (SL4 RNA) (structured_RNA)
# RNA: GGGUGUGGCUGUCACUCGGCUGCAUGCUUAGUGCACUCACGCCC
# Target: N protein NTR (IDR1-NTD-IDR2) (SARS-CoV-2, UniProt P0DTC9 1-248)
# Experiment: EMSA
# Conditions: protein: recombinant; tags: none stated; label: 5'-32P for EMSA; unlabeled for NMR; hairpin (stem loop)
binder,measurement,value
B1,binding result,binds
